Source: article PMC3021135

Molecular target: hAGT C145S (O6-alkylguanine-DNA alkyltransferase, inactive mutant) (human, UniProt P16455 1-207, C145S)
Experiment: EMSA

hAGT C145S (O6-alkylguanine-DNA alkyltransferase, inactive mutant), sequence (P16455 whole entry C145S): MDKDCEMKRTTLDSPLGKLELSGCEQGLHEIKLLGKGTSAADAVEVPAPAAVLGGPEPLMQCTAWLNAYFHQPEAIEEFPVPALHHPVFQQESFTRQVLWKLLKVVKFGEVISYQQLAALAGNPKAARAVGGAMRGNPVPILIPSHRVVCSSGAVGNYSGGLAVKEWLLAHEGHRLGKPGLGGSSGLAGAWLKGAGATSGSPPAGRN

B1: Control (non-cross-linked duplex) (dsDNA)
DNA 1: CGATGTCATCG
DNA 2: CGATGACATCG
- Kd: 8.36 ± 1.11 µM
